These results are taken from patent US8153413B2, “High alkaline protease and use thereof” (Japan Agency for Marine-Earth Science and Technology, priority 2004, dated 2012).

For series [1], the system named is invention enzyme. The experiment in a line: Hydrolysis of natural proteins relative to casein. The series is classed as biochemical, Alkaliphillus transvaalensis.
The nature of series [2]: Thermostability, residual activity after heat treatment by casein method. The series is classed as physicochemical. As to conditions: for influence of Ca2+ / calcium chloride on thermostability: calcium chloride 5 mmol/L. The procedure: The invention enzyme was added to 50 mmol/L borate buffer (pH 10.0), and heat treatment was conducted at each temperature of from 30 to 75° C. for 10 minutes. The residual activity was measured by the casein method. The residual activity after the heat treatment is shown in FIG. 2B in which activity before the heat treatment is defined as 100%.

Series [3] concerns casein. Put plainly: Optimum pH / active pH, casein method. The class given is biochemical. As to conditions: 1% (w/v) casein, 40° C., 15 minutes, highest activity in 50 mmol/L potassium chloride/sodium hydroxide buffer. On the procedure: 1 ml of each 50 mmol/L buffer containing 1% (w/v) casein (Hammerstein, Merck) was warmed at 40° C. for 5 minutes, and 0.1 ml of the enzyme solution was then added. A reaction was conducted for from 15 to 20 minutes. Subsequently, 2 ml of a trichloroacetic acid solution (TCA solution: 0.11 mol/L trichloroacetic acid, 0.22 mol/L sodium acetate and 0.33 mol/L acetic acid) was added to terminate the reaction. The reaction solution was allowed to stand at room temperature for 10 minutes, and the acid-modified protein was filtered (No. 2 filter paper, manufactured by Watman). 2.5 ml of an alkaline copper reagent [1% (w/v) potassium sodium tartrate: 1% (w/v) copper sulfate: 2% (w/v) sodium carbonate/0.1 mol/L sodium hydroxide=1:1:100] was added to 0.5 ml of the filtrate, and the mixture was warmed at 30° C. for 10 minutes. Thereafter, 0.25 ml of a dilute phenol reagent [phenol reagent (manufactured by Kanto Kagaku) diluted twofold with deionized water] was added, and the mixture was warmed at 30° C. for 30 minutes. Absorbance at 660 nm was measured with a spectrophotometer to obtain an amount of an acid-soluble protein hydrolyzate. By the way, a system obtained by mixing the enzyme reaction system with a reaction terminator and adding the enzyme solution thereto was used as a blank.
Herein, one unit (PU) of the enzyme referred to an amount of an enzyme in which to liberate the acid-soluble protein hydrolyzate corresponding to 1 μmol of tyrosine for 1 minute under the foregoing reaction conditions.
The invention enzyme was reacted at 40° C. for 15 minutes in various buffers of pH 3.5 to 12.6 containing 1% (w/v) casein as a substrate, and the enzymatic activity at each pH was measured. The results thereof are shown in FIG. 1A in terms of relative activity when the highest activity was defined as 100%.
Acetate buffer ( ? ): pH 3.5 to 6.0, phosphate buffer (▪): pH 6.5 to 8.1, carbonate buffer (◯): pH 9.0 to 11.0, phosphate/sodium hydroxide buffer (●): pH 11.0 to 12.2, and potassium chloride/sodium hydroxide buffer (▴): pH 11.5 to 12.6.

The subject of series [4] is casein. The experiment in a line: Optimum temperature, casein method. The series is classed as biochemical. The settings on record: for influence of Ca2+ / calcium chloride on optimum temperature: calcium chloride 5 mmol/L. The procedure:
0.1 ml of the invention enzyme solution was added to 1 ml of 50 mmol/L borate buffer (pH 10.0) containing 0.5% (w/v) casein as a substrate, and a reaction was conducted at a temperature of from 30 to 85° C. for 15 minutes. Activity was measured by the casein method. Relative activity at each temperature is shown in FIG. 2A in which activity in the absence of calcium chloride at 50° C. is defined as 100%. “●” indicates relative activity in the absence of calcium chloride, and “∘” relative activity in the presence of calcium chloride.

Series [5] deals with acidic insulin B-chain. The experiment in a line: Cleavage of acidic insulin B-chain (LC/MS/MS). The class given is biochemical. As to conditions: 30° C. The procedure:
3 ng of alkaline protease ALTP was added to a solution obtained by adding 0.1 mg of insulin B-chain to 100 μl of 0.1 mol/L Tris-hydrochloride buffer (pH 8.0), and a reaction was conducted at 30° C. for from 1 to 5 minutes. 5 μl of the solution was collected after 1 minute, 2 minutes and 5 minutes from the start-up of the reaction, and the reaction was terminated by addition of 50 μl of a 2% (v/v) acetonitrile/0.1% trifluoroacetic acid solution (pH 2.2). The reaction solutions were analyzed by liquid chromatograph/tandem mass analyzer (LC/MS/MS). A mixture of fragmental peptides digested with alkaline protease ALTP of the invention was separated and concentrated by capillary HPLC, and ionized to obtain MS and MS/MS spectra. The MS/MS data of the peptides was subjected to Turbo Sequest search to identify the digested acidic insulin B-chain fragments and determine the cleavage sites. Because of the search with the MS/MS data, the highly reliable identification results were obtained.
A reaction was conducted at 30° C. for 24 hours under the same conditions as in (i) by changing the concentration of alkaline protease ALTP to 300 ng. After the termination of the reaction, the acidic insulin B-chain fragment digested with alkaline protease ALTP was identified by the foregoing method to determine cleavage sites. […]

The mark [6] stands for this setting: listed as novel alkaline protease.

In the case of hemoglobin, the “hydrolytic activity, casein defined as 100%” value in series [1] is given as “approximately 73%”.

B1: alkaline protease ALTP: purified high alkaline protease from Alkaliphillus transvaalensis, mature enzyme amino acid sequence SEQ ID NO: 3 (protein, listed as Alkaliphillus transvaalensis)
chain: AQSTPWGVTRVQAPNVWNRGFTGSGVRVAVLDTGIHSSHEDLTVSGGYSVFGDSPYNDVQGHGTHVAGTIAARNNSVGVIGVAYNAQLYAVKVLNNQGSGTLAGIAQGIEWARQNNMHVINMSLGGTSGSTTLQNAVNAAYNAGILVVAAAGNSGNSAGTGDNVGFPARYPNAMAVAATTSGNVRASFSSTGPAVEIAAPGQDINSTYPTNTYRSLNGTSMAAPHVAGVAALLKSARPAVTAAGIRNAMNSTALNLGNSNWYGNGLVRANNALDMVLSY
Regarding B1, the “influence of Ca2+ / calcium chloride on thermostability” value was “No improvement” in series [2], “unchanged” in series [2] (listed as invention enzyme) and “still unchanged” in series [2] (setting [6]). For the same molecule, in series [2] (pH 10 for 10 minutes), the “temperature up to which stable without activity drop by heating” value was “up to 65 °C”. Besides, the “optimum pH” value in series [3] was 12.6; in series [3] (listed as invention enzyme) it was “approximately 12.6”; in series [3] (setting [6]), “approximately 12.6”. In series [4] (borate buffer pH 10.0, casein, 15 minutes), this molecule showed an optimum temperature of 70 °C. Moreover, the “influence of Ca2+ / calcium chloride on optimum temperature” value is given as “little influenced” in series [4], “unchanged” in series [4] (listed as invention enzyme) and “still unchanged” in series [4] (setting [6]). Moreover, the “bond cleaved first / at the initial stage” value in series [5] (3 ng ALTP, within 5 minutes) is given as “Leu-Tyr”. Besides, in series [5] (300 ng ALTP, within 24 hours), the “peptide bonds of 29 peptide bonds cleaved” value was 26.
